This note sets out measurements from patent US20210163923A1.

This assay concerns the target Heat inactivated human AB serum labelled with Dylight 633 (human). As to the kind of experiment: flow cytometry, IgG displayed on HEK293 cells, anti-Fc PE and Dylight 633 labelled human AB serum. On the technique in general: In flow cytometry, cells or beads pass a laser one at a time.

In turn, “Nivolumab displayed from pINT17-BSD (antibody)” had a % cells double positive for antibody and human serum binding of 3.7%.
Vesencumab (antibody) had a % cells double positive for antibody and human serum binding of 12.3%.
